From the supplement of paper PMC9112550, “Optimization of the antimicrobial peptide Bac7 by deep mutational scanning” (BMC Biology, 2022)

The sequences below were run on Escherichia coli TOP10 (assay: shrunken log2 fold change of peptide-encoding DNA abundance (4.5 h post-induction vs induction); higher = less antimicrobial activity (less host growth inhibition)). Details: time post-induction: 4.5 h; library: site-saturation at positions 5, 18, 19, 20.
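Further: peptides expressed intracellularly from a pBAD plasmid library in pooled LB shake-flask culture, induced with 0.3% L-arabinose, DNA abundance read by NGS, three biological replicates, DESeq2 with apeglm shrinkage.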

Compared with RRIRMRPPRLPRPRPRPGDNPRP, RRIRPRPPRLPRPRPRPYSMPRP is lower in “shrunken log2 fold change” value: -0.00193 for the first, -1.43 for the second.

Compared with RRIRPRPPRLPRPRPRPQMNPRP, RRIRLRPPRLPRPRPRPIGRPRP is higher in “shrunken log2 fold change” value: -0.267 for the first, 0.0169 for the second.

First: RRIRWRPPRLPRPRPRPWLSPRP
Second: RRIRQRPPRLPRPRPRPTKRPRP
The “shrunken log2 fold change” value of the first is lower: -0.0459 for the first, 0.254 for the second.

First: RRIRIRPPRLPRPRPRPHINPRP
Second: RRIRVRPPRLPRPRPRPWAFPRP
The “shrunken log2 fold change” value of the first is lower: -0.853 for the first, -0.189 for the second.

First: RRIRQRPPRLPRPRPRPMWYPRP
Second: RRIRMRPPRLPRPRPRPGLWPRP
The “shrunken log2 fold change” value of the first is lower: -0.298 for the first, 1.1 for the second.

First: RRIRYRPPRLPRPRPRPEYDPRP
Second: RRIRWRPPRLPRPRPRPCYGPRP
The “shrunken log2 fold change” value of the first is lower: -0.104 for the first, 0.22 for the second.

Compared with RRIRPRPPRLPRPRPRPSGNPRP, RRIRDRPPRLPRPRPRPEESPRP is higher in “shrunken log2 fold change” value: -0.273 for the first, 0.14 for the second.

First: RRIRIRPPRLPRPRPRPQYQPRP
Second: RRIRERPPRLPRPRPRPPDHPRP
The “shrunken log2 fold change” value of the first is lower: -0.769 for the first, -0.0455 for the second.

RRIRARPPRLPRPRPRPTCIPRP and RRIRERPPRLPRPRPRPQPAPRP are within 0.2 log units of each other in “shrunken log2 fold change” value: 0.331 for the first, 0.171 for the second.

RRIRFRPPRLPRPRPRPCVCPRP and RRIRTRPPRLPRPRPRPWRSPRP are within 0.2 log units of each other in “shrunken log2 fold change” value: 0.143 for the first, -0.0438 for the second.

Going from RRIRERPPRLPRPRPRPWMLPRP to RRIRIRPPRLPRPRPRPKPRPRP, the “shrunken log2 fold change” value rises from -0.234 to 0.576.

First: RRIRMRPPRLPRPRPRPHYTPRP
Second: RRIRARPPRLPRPRPRPRCQPRP
The “shrunken log2 fold change” value of the first is lower: -0.399 for the first, 0.316 for the second.

Compared with RRIRLRPPRLPRPRPRPKVHPRP, RRIRRRPPRLPRPRPRPPKSPRP is higher in “shrunken log2 fold change” value: -0.106 for the first, 0.37 for the second.

RRIRVRPPRLPRPRPRPVIEPRP and RRIRFRPPRLPRPRPRPSMAPRP are within 0.2 log units of each other in “shrunken log2 fold change” value: 0.161 for the first, 0.0143 for the second.

Compared with RRIRRRPPRLPRPRPRPPSKPRP, RRIRQRPPRLPRPRPRPFMGPRP is lower in “shrunken log2 fold change” value: 0.172 for the first, -0.0627 for the second.

Going from RRIRARPPRLPRPRPRPTQMPRP to RRIRFRPPRLPRPRPRPWPCPRP, the “shrunken log2 fold change” value falls from 0.563 to -0.229.

First: RRIRARPPRLPRPRPRPRQGPRP
Second: RRIRLRPPRLPRPRPRPCGKPRP
The “shrunken log2 fold change” value of the first is higher: 0.605 for the first, -0.196 for the second.

RRIRFRPPRLPRPRPRPACRPRP and RRIRDRPPRLPRPRPRPCGRPRP are within 0.2 log units of each other in “shrunken log2 fold change” value: 0.192 for the first, 0.147 for the second.

RRIRIRPPRLPRPRPRPFLGPRP and RRIRARPPRLPRPRPRPMIHPRP are within 0.2 log units of each other in “shrunken log2 fold change” value: 0.00585 for the first, -0.119 for the second.

RRIRGRPPRLPRPRPRPMNAPRP and RRIRARPPRLPRPRPRPQGSPRP are within 0.2 log units of each other in “shrunken log2 fold change” value: 0.493 for the first, 0.4 for the second.

Going from RRIRLRPPRLPRPRPRPMQAPRP to RRIRYRPPRLPRPRPRPCFAPRP, the “shrunken log2 fold change” value falls from -0.0495 to -0.521.

Compared with RRIRYRPPRLPRPRPRPPRDPRP, RRIRERPPRLPRPRPRPLAHPRP is lower in “shrunken log2 fold change” value: 0.102 for the first, -0.368 for the second.

Going from RRIRVRPPRLPRPRPRPMGKPRP to RRIRPRPPRLPRPRPRPFWWPRP, the “shrunken log2 fold change” value rises from -0.0406 to 0.55.

RRIRWRPPRLPRPRPRPTSKPRP and RRIRLRPPRLPRPRPRPMLDPRP are within 0.2 log units of each other in “shrunken log2 fold change” value: -0.0975 for the first, 0.014 for the second.

Compared with RRIRKRPPRLPRPRPRPQGCPRP, RRIRERPPRLPRPRPRPNHDPRP is lower in “shrunken log2 fold change” value: 0.421 for the first, -0.551 for the second.
